System: PARP (endogenous, MDA-MB-231 cells) (Homo sapiens)
Assay: cell_activity
Settings: cholesterol-conjugated, HEG loop, 5 uM, 48 h

CCCAGCAAACAAGCCT (double strand) [OX401]
activity (% PARylated cells) (3 PS linkages on each strand, PARP activation weaker than OX413): 20

CCCAGCAAACAAGCCT (double strand) [OX413]
activity (% PARylated cells) (FANA (2'-deoxy-2'-fluoroarabino) nucleotides and PS linkages (positions only in images), PARP activation): > 40
